Measured values as given in article PMC10253835, “Plakophilin-3 Binds the Membrane and Filamentous Actin without Bundling F-Actin” (International Journal of Molecular Sciences, 2023).

Target: the molecule itself
Assay: SEC; purified plakophilin-3 on Superdex S-200 10/300; methods give 20 mM Tris pH 7.5, 150 mM NaCl, 1 mM dithiothreitol; dimer and monomer peaks pooled and reloaded; more dimer at higher concentration and lower reducing conditions, mainly monomer with dithiothreitol or TCEP

B1: plakophilin-3 (residues 305-797) (domain or fragment, human, UniProt Q9Y446 305-797, looked up)
chain: SHRTLQRLSSGFDDIDLPSAVKYLMASDPNLQVLGAAYIQHKCYSDAAAKKQARSLQAVPRLVKLFNHANQEVQRHATGAMRNLIYDNADNKLALVEENGIFELLRTLREQDDELRKNVTGILWNLSSSDHLKDRLARDTLEQLTDLVLSPLSGAGGPPLIQQNASEAEIFYNATGFLRNLSSASQATRQKMRECHGLVDALVTSINHALDAGKCEDKSVENAVCVLRNLSYRLYDEMPPSALQRLEGRGRRDLAGAPPGEVVGCFTPQSRRLRELPLAADALTFAEVSKDPKGLEWLWSPQIVGLYNRLLQRCELNRHTTEAAAGALQNITAGDRRWAGVLSRLALEQERILNPLLDRVRTADHHQLRSLTGLIRNLSRNARNKDEMSTKVVSHLIEKLPGSVGEKSPPAEVLVNIIAVLNNLVVASPIAARDLLYFDGLRKLIFIKKKRDSPDSEKSSRAASSLLANLWQYNKLHRDFRAKGYRKEDFLGP
notes: pET28 construct with eight histidines followed by an HRV-3C site at the amino terminus; no cleavage step is described; The protein is found as monomer and as homodimer; also called armadillo repeat motif domain of plakophilin-3; Pkp3; source: E. coli BL21(DE3) Rosetta2, purified (Ni-nitriloacetic acid column, Superdex S-200 size exclusion)
  stoichiometry N: 2
